The values that follow come from patent US20140087995A1 (published 2014).

Numbered stars: 1 amine (or outer) side, 2 acyl side, 3 side chain; on linkers, the order of the positions; unused ones are H or OH. Bridge positions count the residues as written; N and C are the ends. Side chains are listed from the residue outwards. Ends that are not written are not given here. * marks the point of attachment. C20 diacid = O=C(O)CCCCCCCCCCCCCCCCCCC(=O)*; γGlu = O=C(O)[C@H](CCC(=O)[*:2])N[*:1]; AEEA = NCCOCCOCC(=O)O

The target of assay [1] is T1, rat calcitonin receptor (rat, UniProt P32214 25-516).
T1 construct: whole, on cells; Used as membranes prepared from the transfected cells (Assay VIII); also called rCTR; rat calcitonin (a) receptor
T1 sequence (looked up): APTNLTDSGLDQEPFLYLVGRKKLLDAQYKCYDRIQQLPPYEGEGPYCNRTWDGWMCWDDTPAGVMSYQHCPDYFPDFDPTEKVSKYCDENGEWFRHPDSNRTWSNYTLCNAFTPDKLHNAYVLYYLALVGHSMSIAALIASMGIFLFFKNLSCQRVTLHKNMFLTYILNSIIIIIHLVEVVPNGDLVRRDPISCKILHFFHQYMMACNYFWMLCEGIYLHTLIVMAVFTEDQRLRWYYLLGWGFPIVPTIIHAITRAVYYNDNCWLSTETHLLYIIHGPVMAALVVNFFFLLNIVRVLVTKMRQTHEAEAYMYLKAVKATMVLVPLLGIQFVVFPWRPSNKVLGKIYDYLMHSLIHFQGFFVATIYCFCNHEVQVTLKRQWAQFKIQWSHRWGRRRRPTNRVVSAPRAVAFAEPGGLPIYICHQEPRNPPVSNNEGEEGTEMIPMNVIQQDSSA
As to the kind of experiment: SPA competition binding, displacement of 125I-calcitonin from membranes of BHK tk'ts 13 cells transfected with rat calcitonin receptor (Assay VIII). (Displacement assays read how much labelled ligand stays bound in the presence of the test substance.)

Assay [2] has as its target T1, rat calcitonin receptor. In words: ratio of IC50 on rat calcitonin receptor (Assay VIII) to IC50 on rat amylin receptor (Assay VI).
For assay [3], the target named is T2, human calcitonin receptor (human, UniProt P30988 25-474).
T2 construct: whole, on cells; Used as membranes prepared from the transfected cells (Assay VII); also called hCTR; hCT
T2 sequence (looked up): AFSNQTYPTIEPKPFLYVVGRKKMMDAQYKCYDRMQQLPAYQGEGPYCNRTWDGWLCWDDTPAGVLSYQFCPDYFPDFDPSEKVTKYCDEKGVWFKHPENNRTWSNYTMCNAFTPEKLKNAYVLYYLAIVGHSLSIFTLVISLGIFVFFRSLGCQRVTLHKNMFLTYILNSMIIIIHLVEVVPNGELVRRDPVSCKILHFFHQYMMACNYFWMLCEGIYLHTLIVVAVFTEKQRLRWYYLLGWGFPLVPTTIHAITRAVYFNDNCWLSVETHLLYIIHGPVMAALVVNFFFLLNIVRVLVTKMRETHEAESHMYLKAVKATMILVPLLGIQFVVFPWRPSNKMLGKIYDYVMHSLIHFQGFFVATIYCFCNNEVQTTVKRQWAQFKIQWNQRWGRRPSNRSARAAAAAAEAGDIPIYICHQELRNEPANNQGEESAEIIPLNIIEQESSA
As to the kind of experiment: ratio of IC50 on human calcitonin receptor (Assay VII) to IC50 on human amylin receptor (Assay V). An outline of the steps:
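IC₅₀ values were derived by one-site competition analysis of SPA counts. Cell membranes (35 ng/μL) with SPA beads were incubated with test compounds for 120 min at 25° C in Hepes buffer, pH 7.4, containing CaCl2, MgCl₂, OA and Tween20.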

The target in assay [4] is T3, rat amylin receptor (rat calcitonin receptor + rat RAMP 3) (rat, UniProt P32214 25-516; Q9JJ73 23-147).
T3 construct: whole, on cells; Used as membranes prepared from the transfected cells (Assay VI); also called rAmylin-R; rat amylin 3(a) receptor
T3 sequence (looked up) 1: T1 sequence (looked up)
T3 sequence (looked up) 2: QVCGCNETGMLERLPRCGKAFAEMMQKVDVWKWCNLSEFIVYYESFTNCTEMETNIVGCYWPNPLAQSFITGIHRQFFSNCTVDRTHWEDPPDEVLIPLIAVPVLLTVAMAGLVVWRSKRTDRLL
In words: SPA competition binding, displacement of 125I-rat amylin from membranes of BHK tk'ts 13 cells transfected with rat calcitonin receptor + rat RAMP 3 (Assay VI).

Assay [5] has as its target T4, human calcitonin receptor (human, UniProt P30988 25-474).
T4 sequence (looked up): T2 sequence (looked up)
In words: cell-based or functional assay.

B1: N^ε1-[(4S)-4-carboxy-4-(19-carboxynonadecanoylamino)butanoyl]-[Glu14,Arg17,Pro21,Pro27,Pro34,Arg35]-h-amylin (peptide)
peptide: K([γGlu-C20 diacid])CNTATCATQRLAEFLRHSSPNFGAIPSSTNVGPRTY-NH2
modifications: disulfide 2-7; N-terminus assumed
SMILES: CC[C@H](C)[C@H](NC(=O)[C@H](C)NC(=O)CNC(=O)[C@H](Cc1ccccc1)NC(=O)[C@H](CC(N)=O)NC(=O)[C@@H]1CCCN1C(=O)[C@H](CO)NC(=O)[C@H](CO)NC(=O)[C@H](Cc1c[nH]cn1)NC(=O)[C@H](CCCNC(=N)N)NC(=O)[C@H](CC(C)C)NC(=O)[C@H](Cc1ccccc1)NC(=O)[C@H](CCC(=O)O)NC(=O)[C@H](C)NC(=O)[C@H](CC(C)C)NC(=O)[C@H](CCCNC(=N)N)NC(=O)[C@H](CCC(N)=O)NC(=O)[C@@H](NC(=O)[C@H](C)NC(=O)[C@@H]1CSSC[C@H](NC(=O)[C@@H](N)CCCCNC(=O)CC[C@H](NC(=O)CCCCCCCCCCCCCCCCCCC(=O)O)C(=O)O)C(=O)N[C@@H](CC(N)=O)C(=O)N[C@@H]([C@@H](C)O)C(=O)N[C@@H](C)C(=O)N[C@@H]([C@@H](C)O)C(=O)N1)[C@@H](C)O)C(=O)N1CCC[C@H]1C(=O)N[C@@H](CO)C(=O)N[C@@H](CO)C(=O)N[C@H](C(=O)N[C@@H](CC(N)=O)C(=O)N[C@H](C(=O)NCC(=O)N1CCC[C@H]1C(=O)N[C@@H](CCCNC(=N)N)C(=O)N[C@H](C(=O)N[C@@H](Cc1ccc(O)cc1)C(N)=O)[C@@H](C)O)C(C)C)[C@@H](C)O
notes: not restated for each compound
As usually defined, the IC50 is the concentration that inhibits the measured activity by half. Regarding B1, the IC50 was found to be 15.4 nM with rat calcitonin receptor [1] and 0.339 nM in assay [4]. Besides, in the assay with rat calcitonin receptor [2], the “Ratio rCT/rAmylin binding” value came to 45.5. For the same molecule, in assay [3], the “Ratio hCT/hAmylin binding” value came out at 38.6.

B2: N^ε1-[(4S)-4-carboxy-4-[[(4S)-4-carboxy-4-(19-carboxynonadecanoylamino)butanoyl]amino]butanoyl]-[Asp14,Arg17,Pro21,Pro27,Pro34,Arg35]-h-amylin (peptide)
peptide: K([γGlu-γGlu-C20 diacid])CNTATCATQRLADFLRHSSPNFGAIPSSTNVGPRTY-NH2
modifications: disulfide 2-7
notes: not restated for each compound; also called compound 130
With B2, the IC50 in the assay with rat calcitonin receptor [1] stood at 223 nM; in assay [4], 0.93 nM. For the same molecule, in the assay with rat calcitonin receptor [2], the “Ratio rCT/rAmylin binding” value amounted to 240. In addition, the “Ratio hCT/hAmylin binding” value in assay [3] came out at 280.

B3: N^ε1-[(4S)-4-carboxy-4-[[(4S)-4-carboxy-4-(19-carboxynonadecanoylamino)butanoyl]amino]butanoyl]-[Ser14,Arg17,Pro21,Pro27,Pro34,Glu35]-h-amylin (peptide)
peptide: K([γGlu-γGlu-C20 diacid])CNTATCATQRLASFLRHSSPNFGAIPSSTNVGPETY-NH2
modifications: disulfide 2-7; N-terminus assumed
SMILES: CC[C@H](C)[C@H](NC(=O)[C@H](C)NC(=O)CNC(=O)[C@H](Cc1ccccc1)NC(=O)[C@H](CC(N)=O)NC(=O)[C@@H]1CCCN1C(=O)[C@H](CO)NC(=O)[C@H](CO)NC(=O)[C@H](Cc1c[nH]cn1)NC(=O)[C@H](CCCNC(=N)N)NC(=O)[C@H](CC(C)C)NC(=O)[C@H](Cc1ccccc1)NC(=O)[C@H](CO)NC(=O)[C@H](C)NC(=O)[C@H](CC(C)C)NC(=O)[C@H](CCCNC(=N)N)NC(=O)[C@H](CCC(N)=O)NC(=O)[C@@H](NC(=O)[C@H](C)NC(=O)[C@@H]1CSSC[C@H](NC(=O)[C@@H](N)CCCCNC(=O)CC[C@H](NC(=O)CC[C@H](NC(=O)CCCCCCCCCCCCCCCCCCC(=O)O)C(=O)O)C(=O)O)C(=O)N[C@@H](CC(N)=O)C(=O)N[C@@H]([C@@H](C)O)C(=O)N[C@@H](C)C(=O)N[C@@H]([C@@H](C)O)C(=O)N1)[C@@H](C)O)C(=O)N1CCC[C@H]1C(=O)N[C@@H](CO)C(=O)N[C@@H](CO)C(=O)N[C@H](C(=O)N[C@@H](CC(N)=O)C(=O)N[C@H](C(=O)NCC(=O)N1CCC[C@H]1C(=O)N[C@@H](CCC(=O)O)C(=O)N[C@H](C(=O)N[C@@H](Cc1ccc(O)cc1)C(N)=O)[C@@H](C)O)C(C)C)[C@@H](C)O
notes: not restated for each compound; also called compound 120
Turning to B3, the IC50 was determined as 140 nM in the assay with rat calcitonin receptor [1] and 0.161 nM in assay [4]. Moreover, the “Ratio rCT/rAmylin binding” value in the assay with rat calcitonin receptor [2] was determined as 868. Also, in assay [3], the “Ratio hCT/hAmylin binding” value is 45.3.

B4: N^ε1-[(4S)-4-carboxy-4-[[(4S)-4-carboxy-4-(19-carboxynonadecanoylamino)butanoyl]amino]butanoyl]-[Glu14,Arg17,Pro21,Pro27,His34,Glu35]-h-amylin (peptide)
peptide: K([γGlu-γGlu-C20 diacid])CNTATCATQRLAEFLRHSSPNFGAIPSSTNVGHETY-NH2
modifications: disulfide 2-7; N-terminus assumed
SMILES: CC[C@H](C)[C@H](NC(=O)[C@H](C)NC(=O)CNC(=O)[C@H](Cc1ccccc1)NC(=O)[C@H](CC(N)=O)NC(=O)[C@@H]1CCCN1C(=O)[C@H](CO)NC(=O)[C@H](CO)NC(=O)[C@H](Cc1c[nH]cn1)NC(=O)[C@H](CCCNC(=N)N)NC(=O)[C@H](CC(C)C)NC(=O)[C@H](Cc1ccccc1)NC(=O)[C@H](CCC(=O)O)NC(=O)[C@H](C)NC(=O)[C@H](CC(C)C)NC(=O)[C@H](CCCNC(=N)N)NC(=O)[C@H](CCC(N)=O)NC(=O)[C@@H](NC(=O)[C@H](C)NC(=O)[C@@H]1CSSC[C@H](NC(=O)[C@@H](N)CCCCNC(=O)CC[C@H](NC(=O)CC[C@H](NC(=O)CCCCCCCCCCCCCCCCCCC(=O)O)C(=O)O)C(=O)O)C(=O)N[C@@H](CC(N)=O)C(=O)N[C@@H]([C@@H](C)O)C(=O)N[C@@H](C)C(=O)N[C@@H]([C@@H](C)O)C(=O)N1)[C@@H](C)O)C(=O)N1CCC[C@H]1C(=O)N[C@@H](CO)C(=O)N[C@@H](CO)C(=O)N[C@H](C(=O)N[C@@H](CC(N)=O)C(=O)N[C@H](C(=O)NCC(=O)N[C@@H](Cc1c[nH]cn1)C(=O)N[C@@H](CCC(=O)O)C(=O)N[C@H](C(=O)N[C@@H](Cc1ccc(O)cc1)C(N)=O)[C@@H](C)O)C(C)C)[C@@H](C)O
notes: as for B1
On to B4, for which the IC50 came to 498 nM in the assay with rat calcitonin receptor [1] and 3.14 nM in assay [4]. Moreover, in the assay with rat calcitonin receptor [2], the “Ratio rCT/rAmylin binding” value amounted to 159. Also, the “Ratio hCT/hAmylin binding” value in assay [3] was 29.1.
On to K([γGlu-γGlu-C20 diacid])CNTATCATQRLAEFLRHSSPNFGAIPSSTNVGPHTY-NH2 (disulfide 2-7 (inferred), not restated for each compound), for which the IC50 was 21 nM in the assay with rat calcitonin receptor [1] and 0.288 nM in assay [4]. The “Ratio rCT/rAmylin binding” value with rat calcitonin receptor [2] came out at 73. The “Ratio hCT/hAmylin binding” value in assay [3] is 27.3.
For the molecule K([γGlu-γGlu-C20 diacid])CNTATCATQRLADFLRHSSPNFGAIPSSTNVGPETY-NH2 (disulfide 2-7, not restated for each compound), the values for the IC50 (with rat calcitonin receptor [1]; in assay [4]) were 31.9 nM and 0.324 nM, respectively. Moreover, the “Ratio rCT/rAmylin binding” value with rat calcitonin receptor [2] was determined as 98.5. Also, the “Ratio hCT/hAmylin binding” value in assay [3] came out at 49.8.
For the molecule K([γGlu-γGlu-C20 diacid])CNTATCATQRLAEFLRHSSPNFGAILSSTPVGPETY-NH2 (disulfide 2-7 (inferred), not restated for each compound), the IC50 amounted to 33.5 nM in the assay with rat calcitonin receptor [1] and 0.449 nM in assay [4]. For the same molecule, in the assay with rat calcitonin receptor [2], the “Ratio rCT/rAmylin binding” value came out at 74.7. In addition, the “Ratio hCT/hAmylin binding” value in assay [3] was determined as 22.6.
Turning to K([AEEA-AEEA-γGlu-C20 diacid])CNTATCATQRLANFLRHSSPNFGAIPSSTNVGPNTY-NH2 (disulfide 2-7 (inferred), also called compound 98), in assay [5], the “Ratio hCT/hAmylin funct.” value came out at 19.5.
In the case of K([AEEA-AEEA-γGlu-C20 diacid])CNTATCATQRLANFLRHSSPNFGAIPSSTNVGHNTY-NH2 (disulfide 2-7 (inferred), also called compound 97), in assay [5], the “Ratio hCT/hAmylin funct.” value is 33.
For the molecule K([AEEA-AEEA-γGlu-C20 diacid])CNTATCATQRLANFLRHSSPNFGAIPSSTPVGSNTY-NH2 (disulfide 2-7 (inferred), also called compound 96), the “Ratio hCT/hAmylin funct.” value in assay [5] is 21.
Turning to K([AEEA-C20 diacid])CNTATCATQRLANFLRHSSPNFGAIPSSTNVGHNTY-NH2 (disulfide 2-7 (inferred), also called compound 91) [N^ε1-[2-[2-[2-(19-carboxynonadecanoylamino)ethoxy]ethoxy]acetyl]-[Arg17,Pro21,Pro27,His34]-h-amylin], the “Ratio hCT/hAmylin funct.” value in assay [5] was determined as 36.9.
On to K([AEEA-AEEA-γGlu-C20 diacid])CNTATCATQRLANFLRHSSPNFGAIPSSTNVGRNTY-NH2 (disulfide 2-7 (inferred), also called compound 95), for which, in assay [5], the “Ratio hCT/hAmylin funct.” value turned out to be 33.
